The text below walks through data of patent US7629135B2, “Toll-like receptor agonists and antagonists and methods of use thereof” (The Board of Trustees of the University of Illinois, priority 2006, dated 2009).

For assay [1], the target named is T1, TLR2 (Homo sapiens, UniProt O60603).
T1 construct: host or cells: HeLa
The assay is described as follows: NF-κB luciferase reporter assay in TLR2-HeLa cells. The class given is cell-based. Here is the method:
(§1) To determine whether TLR2 is a receptor for SAA, a TLR2-expressing cell line was prepared in HeLa cells, which contain very little endogenous TLR2 transcript (FIG. 6A, upper panel). […] TLR2 is a class I transmembrane protein that contains an extracellular ligand binding domain (ectodomain), a transmembrane domain and a cytoplasmic domain consisting of the Toll/IL-1/receptor/Resistance (TIR) motif. Studies have shown that TLR2 forms heterodimers with TLR1 and TLR6 (Ozinsky et al., 2000), which display different preference for TLR2 ligands (Hoebe et al., 2005; Takeuchi et al., 2002). The C-terminal TIR domain is conserved among TLRs and responsible for TLR signaling (O'Neill and Bowie, 2007; Takeda and Akira, 2004). To assess the relative contributions of TLRs to SAA signaling, TLR1, TLR2, TLR4 and TLR6 were overexpressed in the TLR2-HeLa cells, and their effects on SAA-induced NF-κB luciferase reporter activity were determined. […] In addition, the TIR domain deletion mutants (ΔTIR) of these receptors were expressed, which are negative regulators of TLR signaling.
(§2) Methods for the generation of TLR2-HeLa stable cell line: HeLa cells stably transfected with human TLR2 gene were generated by transfecting HeLa cells with the expression construct pUNO-hTLR2 (InvivoGen, San Diego, Calif.; GenBank accession number for human TLR2 cDNA is NM_003264) and selected with Blasticidin at concentration of 20 μg/ml for 2 weeks. The control HeLa cells were generated at the same time by transfecting with empty pUNO vector. Cells were maintained in DMEM supplemented with 10% heat-inactivated FB S, 2 mM L-glutamine, 100 IU/ml penicillin, and 50 μg/ml streptomycin. Expression of TLR2 was confirmed using an anti-TLR2 antibody (eBioscience) and FTTC-conjugated anti-mouse antibody, on a FACSCalibur flow cytometer (Becton Dickinson). The TLR2-HeLa and control cells were then co-transfected with 5xNF-κB reporter plasmids (pNF-κB-Luc, Stratagene, Cedar Creek, Tex., catalog no. 219077) and empty SFFV vector bearing a neomycin resistant gene. The TLR2-HeLa/NF-κB reporting cells were obtained after selecting with G418 at concentration of […] for 2-3 weeks. Cells (5′10^5/ml) were grown in DMEM supplemented with 10% heat-inactivated FBS, 2 mM L-glutamine, 100 IU/ml penicillin, and […] streptomycin.
(§3) Methods for using HeLa cells in reporter assay: Mock-transfected HeLa and TLR2-HeLa cells were maintained at ˜5×10^5 cells/well in six-well plates, transfected with plasmid expression vectors coding for a 3×κB-directed luciferase reporter, pCMVβ vector DNA (Promega) and/or other expression constructs as indicated. Total DNA concentration was adjusted to 1 μg/sample by addition of empty vector DNA. Transient transfection was performed using LipofectAmine Plus reagent (Invitrogen). […]
For orientation: In a reporter assay the amount or activity of a reporter protein is the signal.

The subject of assay [2] is TLR2. Description: NF-κB luciferase reporter assay in TLR2-HeLa cells. The class given is cell-based, human. The conditions noted are these: TLR2-HeLa cells, p<0.01. On the procedure:
as §1, §2, §3

Assay [3] concerns mouse macrophage cell line RAW264.7. The assay is described as follows: G-CSF secretion in RAW264.7 cells (ELISA). The conditions noted are these: SAA 1 μM, time course. The class given is cell-based.

T1 sequence (O60603 21-784): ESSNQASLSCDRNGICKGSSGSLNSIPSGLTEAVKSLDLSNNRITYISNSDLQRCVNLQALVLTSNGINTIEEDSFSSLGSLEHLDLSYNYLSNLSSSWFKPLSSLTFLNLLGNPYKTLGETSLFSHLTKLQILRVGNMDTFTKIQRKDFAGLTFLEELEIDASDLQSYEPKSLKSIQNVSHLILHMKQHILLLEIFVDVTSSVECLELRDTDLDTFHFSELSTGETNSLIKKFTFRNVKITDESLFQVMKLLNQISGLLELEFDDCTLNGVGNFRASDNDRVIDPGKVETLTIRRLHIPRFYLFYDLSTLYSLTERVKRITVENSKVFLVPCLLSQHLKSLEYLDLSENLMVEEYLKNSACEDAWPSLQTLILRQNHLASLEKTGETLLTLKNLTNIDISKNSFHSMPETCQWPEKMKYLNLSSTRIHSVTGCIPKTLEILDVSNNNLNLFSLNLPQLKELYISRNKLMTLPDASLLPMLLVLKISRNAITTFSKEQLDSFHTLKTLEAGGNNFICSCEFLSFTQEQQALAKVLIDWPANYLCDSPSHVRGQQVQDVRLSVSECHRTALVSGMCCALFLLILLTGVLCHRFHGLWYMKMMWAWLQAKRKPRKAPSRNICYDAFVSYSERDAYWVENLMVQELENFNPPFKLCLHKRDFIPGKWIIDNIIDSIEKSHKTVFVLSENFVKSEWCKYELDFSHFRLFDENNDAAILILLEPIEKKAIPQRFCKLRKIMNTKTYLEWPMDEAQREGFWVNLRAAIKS
T1 sequence (Q15399 25-786 partner): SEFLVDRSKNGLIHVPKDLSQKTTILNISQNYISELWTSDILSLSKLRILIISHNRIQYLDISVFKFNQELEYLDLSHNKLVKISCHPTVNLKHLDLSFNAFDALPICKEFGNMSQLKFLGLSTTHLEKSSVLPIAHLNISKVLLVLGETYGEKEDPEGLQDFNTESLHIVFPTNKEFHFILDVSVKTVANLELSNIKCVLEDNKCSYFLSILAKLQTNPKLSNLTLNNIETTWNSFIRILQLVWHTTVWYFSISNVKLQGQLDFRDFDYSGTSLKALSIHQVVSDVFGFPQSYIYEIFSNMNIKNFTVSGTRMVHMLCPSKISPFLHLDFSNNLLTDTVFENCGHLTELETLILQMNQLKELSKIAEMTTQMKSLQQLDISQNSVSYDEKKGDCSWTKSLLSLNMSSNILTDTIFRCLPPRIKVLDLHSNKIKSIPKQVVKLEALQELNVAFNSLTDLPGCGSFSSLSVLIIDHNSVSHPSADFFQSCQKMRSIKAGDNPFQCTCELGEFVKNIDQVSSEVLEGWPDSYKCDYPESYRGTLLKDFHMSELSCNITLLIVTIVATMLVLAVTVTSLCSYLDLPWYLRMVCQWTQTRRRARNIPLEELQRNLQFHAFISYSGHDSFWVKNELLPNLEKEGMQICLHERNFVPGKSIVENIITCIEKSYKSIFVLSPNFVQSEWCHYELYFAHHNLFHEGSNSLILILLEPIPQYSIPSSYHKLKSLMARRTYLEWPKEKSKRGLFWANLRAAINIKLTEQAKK

B1: SAA: Recombinant human SAA purchased from PeproTech; major acute-phase protein of 104 amino acids (protein, UniProt P0DJI8 19-122, looked up)
Serum amyloid A-1 protein: RSFFSFLGEAFDGARDMWRAYSDMREANYIGSDKYFHARGNYDAAKRGPGGAWAAEVITDARENIQRFFGHGAEDSLADQAANEWGRSGKDPNHFRPAGLPEKY
In the case of B1, in the assay with TLR2 [1] (SAA-stimulated TLR2-HeLa vs mock-transfected HeLa cells, p<0.01), the NF-κB luciferase activity entry is “significantly increased NF-κB luciferase activity”. The “SAA-induced NF-κB luciferase activity with exogenous expression of TLR1” value with TLR2 [1] (TLR2-HeLa cells overexpressing TLR1) was “potentiated SAA-induced NF-κB luciferase activity”. Further, the “SAA-induced NF-κB luciferase activity with ΔTIR mutants of TLR1, TLR2 and TLR6” value with TLR2 [2] is on record as “significant inhibition”. Also, in assay [3], the G-CSF production result is “time-dependent production of G-CSF”.
